Assay results published in the Human Domainome abundance scans (Beltran et al. 2025).

B1: Mineralocorticoid receptor, residues 600 to 675; numbered along this chain, P08235 (parent)
chain: SKICLVCGDEASGCHYGVVTCGSCKVFFKRAVEGQHNYLCAGRNDCIIDKIRRKNCPACRLQKCLQAGMNLGARKS
B2: Membrane-associated guanylate kinase, WW and PDZ domain-containing protein 1, residues 352 to 401; numbered along this chain, Q96QZ7 (parent)
chain: TEELDSELELPAGWEKIEDPVYGIYYVDHINRKTQYENPVLEAKRKKQLE

Variants of: B1
Assay: abundance fitness (aPCA) (normalised: wild type 0, dead -1); higher = more abundant; growth selection in yeast, the domain comes from the species named
Conditions: Homo sapiens

Abundance fitness, by site and new letter:
L5: D -0.168, E -0.071, A -0.05, K 0.057, S -0.075, P -0.075, C -0.069, I -0.089, N -0.068, Y -0.076, T -0.037, H -0.239, M -0.133, W -0.106, V -0.209, Q 0.05, F -0.027, R -0.091
I3: H -0.11, Y -0.027, G -0.162, W -0.315, E -0.146, M -0.192, T -0.164, Q -0.152, R -0.225, A -0.157, S -0.128, N -0.022, F -0.04, P -0.453, D -0.062, V -0.166, C -0.172, K -0.196, L -0.239
K2: S -0.161, V -0.142, T -0.049, A -0.066, N 0.002, F -0.267, L -0.099, Q 0.118, W -0.246, E -0.072, D -0.062, G -0.163, Y -0.085, I -0.041, R -0.083, M -0.075, H -0.109
S1: K -0.123, D -0.406, Y 0, M -0.06, H 0.002, G -0.087, P -0.13, A -0.136, L -0.099, F -0.048, I -0.035, V 0.018, W -0.144, R -0.099
G8: A 0.058, E -0.075, F -0.202, K -0.019, I -0.605, H -0.273, D -0.085, C -0.233
C7: T -0.999, R -0.886, H -0.802, V -0.998, Y -0.805, S -0.96, L -1.15, W -0.765, A -0.933
C4: H -0.77, M -0.96, L -0.768, K -0.87, F -0.753, Y -0.99, Q -0.812, A -1.37, T -0.837, V -0.989, I -0.808, S -0.851, P -0.986, N -1.04, G -0.842, E -0.727, D -0.549, W -1.06
V6: G -0.726, Y -0.489, N -0.706, P -0.704, C -0.228, D -0.765, I 0.008, K -0.83, L -0.375, S -0.512, T -0.148, R -0.971, M -0.416, A -0.051, Q -0.803

Variants of: B2
Assay: as above
Conditions: Homo sapiens

Abundance fitness: each site, then its substitutions
Y25: H -0.192, V -0.079, F -0.148, C -0.251
E50: V -0.332, C 0.327, A 0.032
S6: P -0.358, E -0.183, F -0.231
E3: A -0.425, Q -0.226
W14: Y -0.775, K -0.45, G -0.475, Q -0.631, H -0.592
G13: K -0.368, D -0.525
I24: C -0.22, G -0.208, A -0.323, W -0.344
L4: Y -0.444, V -0.064, K 0.019, S -0.037
Y36: S -0.086, K -0.058, R 0.059, V -0.11, P -0.161, H -0.093
E18: G -0.459, Y -0.39, A -0.014, C -0.132, V -0.1, L -0.311, N -0.03, T 0.001
K33: L -0.028, W -0.347, V -0.028, H -0.463, S -0.222
Y22: H 0.1, D -0.078, R 0.056
